Measured values published in article PMC8300624, “Prdx1 Interacts with ASK1 upon Exposure to H2O2 and Independently of a Scaffolding Protein” (Antioxidants, 2021).
Where a chain is given by its changes, count along the chain named.

Columns and labels:
[1] = target: T1, recombinant wild-type peroxiredoxin-1 (Prdx1 WT) (human, UniProt Q06830 1-199); experiment: BLI; Octet Red 96; His-tagged MBP-ASK1-TBD loaded on Ni2+-NTA sensors at 0.45 µM; Prdx as analyte at 1 µM or at different concentrations for kon and koff; 10 µM H2O2 (oxidizing condition); 25 mM Tris/HCl pH 7.4, 25 mM NaCl, 1% BSA, 0.05% Tween 20, 0.01 mM maltose; His-tagged MBP as reference; the paper takes the bond to be a mixed disulfide; details: both partners purified
T1 construct: peroxiredoxin-1 (Prdx1); In the BLI the protein was pre-reduced with DTT, desalted and then met the sensor in 10 µM H2O2 or 10 µM DTT; also called pET17-Prdx1; source: E. coli BL21, purified (Phenyl Sepharose, SP Sepharose, Superdex 75)
T1 sequence (looked up): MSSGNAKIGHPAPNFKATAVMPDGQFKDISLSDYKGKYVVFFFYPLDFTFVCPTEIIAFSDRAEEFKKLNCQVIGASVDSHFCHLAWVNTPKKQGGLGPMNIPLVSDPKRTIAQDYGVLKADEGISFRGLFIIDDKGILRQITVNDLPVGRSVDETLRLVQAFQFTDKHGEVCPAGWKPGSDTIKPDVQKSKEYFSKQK

[2] = target: T2, recombinant Prdx1 C173A (resolving cysteine mutant) (human, UniProt Q06830 1-199, C173A); experiment: as above; details: both partners purified
T2 construct: peroxiredoxin-1 (Prdx1) with C173A; purified by the same protocol as Prdx1 WT; source: E. coli BL21, purified (Phenyl Sepharose, SP Sepharose, Superdex 75)
T2 sequence (looked up): T1 sequence (looked up) with C173A

koff [1]: 0.0002 s⁻¹ | kon [1]: 32700 M⁻¹ s⁻¹ | koff [2]: 0.00228 s⁻¹ | kon [2]: 7200 M⁻¹ s⁻¹
B1: 6xHis-MBP-ASK1-TBD (thioredoxin-binding domain of ASK1 with N-terminal His tag and maltose binding protein) (domain or fragment)
chain: SRRTTVAYVINEASQGQLVVAESEALQSLREACETVGATLETLHFGKLDFGETTVLDRFYNADIAVVEMSDAFRQPSLFYHLGVRESFSMANNIILYCDTNSDSLQSLKEIICQKNTMCTGNYTFVPYMITPHNKVYCCDSSFMKGLTELMQPNFELLLGPICLPLVDRFIQLLKVAQASSSQYFRESILNDIRKARNLYTGKELAAELARIRQR
modifications: Limits are not given; 88-302 is the usual recombinant ASK1-TBD construct and spans the listed TBD cysteines 120-250. His6-MBP-TEV carrier omitted. Assayed with 10 uM H2O2 (oxidizing) or 10 uM DTT …
